Assay results taken from paper PMC4738285 (Scientific Reports, 2016).

Target: T1, recombinant human Hsp70 (human, UniProt P0DMV8 1-641)
T1 construct: also called stress-inducible chaperone Hsp70
Assay: other fluorescence titration
Settings: both partners purified

T1 sequence (P0DMV8 whole entry): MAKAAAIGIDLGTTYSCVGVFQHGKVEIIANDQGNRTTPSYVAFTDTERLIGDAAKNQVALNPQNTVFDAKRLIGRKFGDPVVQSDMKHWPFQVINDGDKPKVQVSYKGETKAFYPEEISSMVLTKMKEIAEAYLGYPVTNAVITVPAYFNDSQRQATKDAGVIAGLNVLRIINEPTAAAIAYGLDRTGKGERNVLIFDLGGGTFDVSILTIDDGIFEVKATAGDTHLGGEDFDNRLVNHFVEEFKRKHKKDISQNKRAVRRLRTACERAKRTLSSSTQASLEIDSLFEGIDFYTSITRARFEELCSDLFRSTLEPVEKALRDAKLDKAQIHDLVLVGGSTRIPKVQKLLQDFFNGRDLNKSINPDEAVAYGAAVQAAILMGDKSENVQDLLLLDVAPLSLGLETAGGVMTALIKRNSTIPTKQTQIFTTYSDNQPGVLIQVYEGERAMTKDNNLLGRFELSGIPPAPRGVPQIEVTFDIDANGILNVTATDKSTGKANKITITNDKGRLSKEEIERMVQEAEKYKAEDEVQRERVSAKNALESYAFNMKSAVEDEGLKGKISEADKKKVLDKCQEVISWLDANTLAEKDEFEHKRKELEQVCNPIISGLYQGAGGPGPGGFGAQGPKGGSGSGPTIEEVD

NRLLLTG (also called NR peptide) [peptide NRLLLTG]
IC50: 11.5 ± 3.8 µM
